Assay results taken from the supplement of paper PMC12667976.

B1: library; numbered along this chain (parent)
chain: MATDAALRRLLRLHRTEIAVAVDSAFPLLHALADHDVVPEDKFQETLHLKEKEGCPQAFHALLSWLLTQDSTAILDFWRVLFKDYNLERYGRLQPILDSFPKDVDLSQPRKGRKPPAVPKALVPPPRLPTKRKASEEARAAAPAALTPRGTASPGSQLKAKPPKKPESSAEQQRLPLGNGIQTMSASVQRAVAMSSGDVPGARGAVEGILIQQVFESGGSKKCIQVGGEFYTPSKFEDSGSGKNKARSSSGPKPLVRAKGAQGAAPGGGEARLGQQGSVPAPLALPSDPQLHQKNEDECAVCRDGGELICCDGCPRAFHLACLSPPLREIPSGTWRCSSCLQATVQEVQPRAEEPRPQEPPVETPLPPGLRSAGEEVRGPPGEPLAGMDTTLVYKHLPAPPSAAPLPGLDSSALHPLLCVGPEGQQNLAPGARCGVCGDGTDVLRCTHCAAAFHWRCHFPAGTSRPGTGLRCRSCSGDVTPAPVEGVLAPSPARLAPGPAKDDTASHEPALHRDDLESLLSEHTFDGILQWAIQSMARPAAPFPS

Variants of: B1
Assay: AIRE transcriptional activation functional score (insulin promoter-GFP; nonsense median 0, synonymous median 1) (normalised score); higher = higher AIRE activity (more reporter activation)
Conditions: with insulin promoter-GFP reporter in HEK293
How it was run: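 Integration of codon-optimized AIRE NNN-codon libraries (three regions) by Bxb1 recombinase was done in Flp-In T-REx HEK293 landing-pad cells containing an insulin core promoter-GFP reporter. Tile-sequencing covered the top 10% GFP cells and the unselected integrants, drawn from mCherry+, BFP− cells sorted at day 7 and grown 7 days. Functional score means the enrichment of a variant in select versus non-select, minus that of wild type. Variants with at least 10 counts per million in non-select were rescaled to nonsense median 0 and synonymous median 1, and the biological replicates were averaged.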

AIRE transcriptional activation functional score: each site, then its substitutions
C322: V 0.9 | W 0.487 | Y 0.843
L323: A 1.11 | C 0.656 | D 1.16 | E 1.47 | F 1.5 | G 1.16 | H 0.721 | I 0.984 | K 1.19 | M 1.8 | N 0.866 | P 1.33 | Q 1.35 | R 1.15 | S 0.985 | T 1.35 | V 1.21 | W 1.42 | Y 0.513
S324: A 1.37 | C 1.03 | D 1.13 | E 0.773 | F 1.09 | G 1.01 | H 0.589 | I 1.06 | K 0.415 | L 1.11 | N 1.08 | P 0.628 | Q 0.407 | R 0.621 | T 0.785 | V 0.994 | W 1.45 | Y 1.18
P325: A 1.15 | C 1.04 | D 0.208 | E 1.45 | F 1.01 | G 1.1 | H 0.387 | I 1.07 | K 1.55 | L 1.12 | M 1.15 | N 0.521 | Q 0.938 | R 0.876 | S 1.21 | T 0.777 | V 0.965 | W 0.913 | Y 1.18
P326: A 0.645 | C 1.19 | D 0.439 | E 0.653 | F 1.72 | G 0.87 | H 0.781 | I 1.06 | K 0.94 | L 1.1 | M -0.264 | N 0.815 | Q 0.303 | R 1.17 | S 0.881 | T 0.923 | V 1.41 | W 1.08 | Y 1.14
L327: A 1.07 | C 0.927 | D 0.96 | E 0.71 | F 1.21 | G 0.535 | H -0.118 | I 0.913 | K 0.524 | M 1.3 | N 1.37 | P 0.673 | Q 1.33 | R 1.05 | S 1.14 | T 0.786 | V 0.621 | W 1.69 | Y 1.2
R328: A 0.877 | C 0.932 | E 1.06 | F 0.907 | G 0.729 | H -0.256 | I 1.17 | K 0.67 | L 1.08 | M 1.1 | P 1.22 | Q 0.659 | S 1.17 | T 0.764 | V 1.1 | Y 1.34
E329: A 1.11 | C 1.46 | D 1.74 | F 1.58 | G 0.92 | H 1.45 | I 1.46 | K 0.00515 | L 1.16 | N 1.33 | P 0.962 | Q -1.43 | R 0.935 | S 1.09 | T 0.98 | V 1.1 | W 1.13 | Y 1.42
I330: A 0.828 | C 0.866 | D 0.391 | E 0.403 | F 0.831 | G 1.16 | K 0.557 | L 0.906 | N 0.89 | P 1.33 | Q 0.577 | R 1.07 | S 0.814 | T 0.637 | V 0.684 | W 0.987 | Y 0.572
P331: A 1.19 | C 1 | D 1.29 | E 0.93 | F 0.62 | G 1.07 | H 0.817 | I 1.59 | K 0.702 | L 0.9 | M 1.35 | N 1.23 | Q 0.548 | R 1.41 | S 0.73 | T 0.972 | V 1.21 | W 1.26 | Y 1.08
